For test [1], the target named is T1, CD300c on the surface of cells (human, UniProt Q08708 21-224).
T1 construct: whole, on cells; also called cellular antigen
T1 sequence (looked up): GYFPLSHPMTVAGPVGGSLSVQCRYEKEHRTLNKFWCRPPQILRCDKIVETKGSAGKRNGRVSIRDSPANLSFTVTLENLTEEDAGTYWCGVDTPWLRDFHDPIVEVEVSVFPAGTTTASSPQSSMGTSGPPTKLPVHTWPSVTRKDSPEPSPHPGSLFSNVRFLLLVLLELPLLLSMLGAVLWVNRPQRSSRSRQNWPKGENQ
Briefly: flow cytometry (FACS binding) on THP-1 cells overexpressing CD300c, FITC anti-human IgG (H+L), MFI. The protocol:
In order to identify whether the anti-CD300c monoclonal antibody (CL7) recognizes a cellular antigen, FACS binding was performed.
Then, the cells were incubated with the anti-CD300c monoclonal antibody, which was serially diluted 3-fold starting from 10 μg/mL, in a CO₂ incubator for 30 minutes, and washed twice with FACS buffer. Then, the cells were incubated with FITC-conjugated anti-human IgG (H+L), which was diluted 1:100 in FACS buffer, in a CO₂ incubator for 30 minutes, and washed twice with FACS buffer. Subsequently, FITC signals were measured with a CytoFLEX instrument manufactured by Beckman Coulter, Inc., and then the MFI values were obtained using CytExpert program.

The target in test [2] is T2, CD80[B7-1] (Sino Biological) (UniProt P33681 35-242).
T2 sequence (looked up): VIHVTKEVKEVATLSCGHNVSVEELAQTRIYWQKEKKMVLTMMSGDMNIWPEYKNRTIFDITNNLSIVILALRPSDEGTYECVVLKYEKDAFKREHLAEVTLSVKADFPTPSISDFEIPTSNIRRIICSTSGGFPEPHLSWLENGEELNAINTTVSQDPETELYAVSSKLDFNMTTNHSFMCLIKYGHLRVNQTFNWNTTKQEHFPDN
Kind of test: binding ELISA on coated antigen (8 µg/mL), HRP anti-Fc detection, 450 nm (Experimental Example 2.5). Here is the method:
(§1) In order to identify that the anti-CD300c monoclonal antibody CL7 specifically binds only to CD300c without binding to other B7 family proteins, binding ELISA was performed. More specifically, each of CD300c antigen, CD300a antigen, or seven B7 family protein antigens (PD-L1 [B7-H1] (Sino Biological), ICOS Ligand[B7-H2] (Sino Biological), CD276[B7-H3] (Sino Biological), B7-H4 (Sino Biological), CD80[B7-1] (Sino Biological), CD86[B7-2] (Sino Biological), CD273[PD-L2] (Sino Biological)) in a coating buffer (0.1 M sodium carbonate, pH 9.0) was coated on an ELISA plate at a concentration of 8 μg/mL per well, and then bound to the plate by incubation at 2° C. to 8° C. overnight. The unbound antigen was removed by washing with PBST three times, and then […] of blocking buffer (5% skim milk in PBST) was added to each well. Subsequently, blocking was performed at room temperature for 1 hour, followed by washing again with PBST. Thereafter, CL7 was diluted in quadruplicate with PBS, incubated with the antigen at room temperature for 1 hour for antigen binding 1 hour later, and washed three times with PBST. Then, a secondary antibody (HRP-conjugated anti-Fc IgG) diluted to 4 μg/mL in blocking buffer was added thereto, followed by incubation at room temperature for 1 hour. Subsequently, the unbound antibody for detection was removed using PBST, and then a TMB solution was added thereto, followed by incubation for 10 minutes for development. Then, 2 N sulfuric acid solution was added to terminate the development reaction, and the absorbance was measured at 450 nm to identify the antibody specifically binding to the CD300c antigen.

Test [3] has as its target T3, ICOS Ligand[B7-H2] (Sino Biological) (UniProt O75144 19-258, limits assumed).
T3 sequence (looked up): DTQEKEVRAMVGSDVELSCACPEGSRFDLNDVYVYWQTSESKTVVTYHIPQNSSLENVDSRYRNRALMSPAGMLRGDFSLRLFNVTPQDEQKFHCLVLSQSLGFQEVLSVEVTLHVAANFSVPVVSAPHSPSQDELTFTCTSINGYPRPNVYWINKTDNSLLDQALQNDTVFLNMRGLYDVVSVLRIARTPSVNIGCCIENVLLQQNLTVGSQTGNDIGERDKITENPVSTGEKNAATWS
The description is as above. Here is the method:
as §1

B1: CL7 (antibody, V domains shown)
VH: EVQLLESGGGLVQPGGSLRLSCAASGFTFSRYAMSWVRQAPGKGLEWVSAISGSGGSTYYADSVKGRFTISRDNSKNTLYLQMNSLRAEDTAVYYCARSSQGIFDIWGQGTLVTVSS
VL: QSVLTQPPSASGTPGQRVTISCSGNNIGTRRVHWYQQLPDTAPKLLIYSKNNRPSGVPDRFSGSKSGTSASLAISGLRSEDEADYYCAAWDDSLSGPVFGGGTKLTVL
notes: detected with anti-human IgG (H+L) and anti-Fc IgG; also called anti-CD300c monoclonal antibody CL7; anti-CD300c monoclonal antibody (CL7)
Take B1: in test [1], a half-maximal effect (EC50) was put at 2.6 nM. The binding result in test [2] and in test [3] was “no binding (tested: log10 about 0.4 ug/ml (about 2.5 ug/ml))” each time.

For the origin of these results see patent US20240254220A1 (CENTRICSBIO, published 2024).
